The results in this text go back to patent US20060034835A1 (Genentech, published 2006).

For assay [1], the target named is human CD20 (human) (UniProt P11836). Nature of the assay: cell-based or functional assay.
For assay [2], the target named is T1, human CD20 (human, UniProt P11836 1-297).
T1 construct: whole, on cells; also called CD20 antigen; Bp35
T1 sequence (looked up): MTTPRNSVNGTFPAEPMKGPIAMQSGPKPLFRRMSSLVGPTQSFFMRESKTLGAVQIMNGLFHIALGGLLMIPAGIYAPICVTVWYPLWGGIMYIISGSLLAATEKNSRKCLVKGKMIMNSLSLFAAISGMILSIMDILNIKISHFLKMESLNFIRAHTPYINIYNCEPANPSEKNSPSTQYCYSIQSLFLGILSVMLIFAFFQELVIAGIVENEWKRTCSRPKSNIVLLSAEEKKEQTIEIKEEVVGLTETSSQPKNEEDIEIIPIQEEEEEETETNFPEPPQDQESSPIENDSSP
Nature of the assay: cell-based ELISA on WIL2-S cells. For orientation: ELISA stands for enzyme-linked immunosorbent assay.
Description: To measure relative binding affinities to the CD20 antigen, a cell-based ELISA assay was developed. […] The cells were washed with PBS containing 1% FBS (assay buffer) and seeded at 250-300,000 cell/well in 96-well round bottom plates (Nunc, Roskilde, Denmark). […] The plates were buried in ice and incubated for 45 min. To remove the unbound antibody, 0.1 mL assay buffer were added to the wells. Plates were centrifuged and supernatants were removed. Cells were washed two more times with 0.2 mL assay buffer. Antibody bound to the plates was detected by adding peroxidase conjugated goat anti-human Fc antibody (Jackson ImmunoResearch, West Grove, Pa.) to the plates. After a 45 min incubation, cells were washed as described before. TMB substrate (3,3′,5,5′-tetramethyl benzidine; Kirkegaard & Perry Laboratories, Gaithersburg, Md.) was added to the plates. The reaction was stopped by adding 1 M phosphoric acid. Titration curves were fit with a four-parameter nonlinear regression curve-fitting program (KaleidaGraph, Synergy software, Reading, Pa.). The absorbance at the midpoint of the titration curve (mid-OD) and its corresponding concentration of the standard were determined. Then the concentration of each variant at this mid-OD was determined, and the concentration of the standard was divided by that of each variant.

In the case of Rituxan (rituximab) (antibody), in assay [1], the ADCC: EC50(variant)/EC50(2H7.v16) is 5.3, the ADCC: EC50(variant)/EC50(Rituxan) was found to be 1, the CDC: EC50(variant)/EC50(Rituxan) was found to be 1 and the apoptosis of Ramos cells: fraction of Annexin V stained cells at 10 nM crosslinked antibody worked out at 16.5%. In assay [1], this molecule yielded an apoptosis of Ramos cells: fraction of doubly labeled cells at 10 nM crosslinked antibody of 38% and an apoptosis of Ramos cells: live cells counted per 10 s at 10 nM crosslinked antibody (cells per 10 s) of 3100.

B1: 2H7 version 166 (antibody, human IgG1, kappa, V domains shown)
VH: EVQLVESGGGLVQPGGSLRLSCAASGYTFTSYNMHWVRQAPGKGLEWVGAIYPGNGDTSYNQKFKGRFTISVDKSKNTLYLQMNSLRAEDTAVYYCARVVYYGGDWYFDVWGQGTLVTVSS
VL: DIQMTQSPSSLSASVGDRVTITCRASSSVSYMHWYQQKPGKAPKPLIYAPSNLASGVPSRFSGSGSGTDFTLTISSLQPEDFATYYCQQWSFNPPTFGQGTKVEIKR
notes: IgG1; Y100b is deleted (written as a substitution with an empty new residue)
As for B1, in assay [2], the Relative binding is 0.99 ratio to 2H7.v16.
